The supplement of paper PMC10567573

B1: FBF1 (parent)
chain: QLQCSPAELQAELLHSQARLAELE
B2: ZNF75A (parent)
chain: RTHTGEQPYTCSICRRNFSRRSSL

Variants of: B1
Experiment: protein stability index of a GFP-peptide fusion (GPS, HEK-293T) (PSI 1-6); higher = more stable
Conditions: c terminus: a fixed tail appended
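Further: lentivirally expressed fusions sorted by FACS into six bins by GFP to DsRed ratio, PSI derived from sequencing read proportions per bin multiplied by bin number.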

Protein stability index: each site, then its substitutions
S16: V 4.15; R 4.02; Y 3.49; T 2.95; W 3.35
Q17: A 3.4; G 3.74; F 3.26; R 3.68; N 4.25; V 3.44; L 2.92; W 3.16; M 3.65; P 4.52; Y 3.52; K 4.11; H 4.31; S 3.98; E 3.77; T 3.97; D 4.55; I 3.07; C 3.62
E22: L 1.98; D 2.72; K 2.99; F 2.25; H 2.39; V 2.54; I 2.16; T 2.34; G 2.91; Q 2.53; M 3.12; W 2.76; R 2.92; C 2.67; N 3.21; Y 2.33; A 2.83; S 2.48; P 3.39
A21: W 2.8; K 3.29; R 3.25; N 3.41; G 3.79; Y 2.31; F 2.72; S 3.31; L 2.63; M 2.31; E 2.61; Q 2.67; P 3.75; C 3.01; T 2.86; D 2.68; V 3.14; I 2.55; H 2.98
A18: N 3.12; S 3.69; Y 2.81; D 4.03; H 2.85; W 2.18; V 2.98; C 3.27; Q 3.66; K 2.77; F 2.82; M 2.77; R 3.24; I 3.13; G 4.23; L 2.68; P 3.96; T 3.42; E 3.95
E24: N 3.29; Y 2.36; S 2.99; P 3.18; H 3.56; A 3.75; K 3.44; L 2.41; C 3.22; F 2.32; G 3.23; Q 3.29; D 2.45; T 3.54; V 2.81; R 3.16; I 3.06; W 2.47; M 2.83
R19: S 4.45; W 2.12; N 4.2; G 4.16; M 1.97; Q 2.94; V 2.55; I 1.99; Y 1.89; D 4.27; E 2.89; C 2.84; K 3.05; A 2.6; F 2.12; T 3.88; P 4.61; H 3.34; L 1.79
L20: D 4.91; S 4.7; C 3.35; M 3.87; P 4.76; F 3.37; R 4.62; Q 5.33; H 4.05; V 3.34; W 4.22; T 4.66; E 4.63; A 4.91; N 4.96; Y 4.12; G 4.74; I 3.59; K 4.66
L23: Y 3.26; T 4.18; M 3.38; A 4.59; W 3.71; F 2.75; K 4.65; P 4.03; G 4.71; R 4.14; I 2.59; E 4.48; D 5.07; V 3.03; S 4.84; C 3.66; H 4; Q 4.98; N 4.79

Variants of: B2
Experiment: as above
Conditions: c terminus: a fixed tail appended

Protein stability index: each site, then its substitutions
R1: K 2.99; I 3.06; E 3.62; F 2.12; D 3.34; C 5.09; H 3.93; G 3.82; A 3.23; L 2.28
